Experimental findings from patent US20240317877A1 (IUCF HYU INDUSTRY UNIVERSITY COOPERATION FOUNDATION HANYANG …, published 2024) are described below.

The EC50 is the concentration at which the effect is half-maximal. Low readings indicate higher potency in that assay, high ones lower potency in that assay.

Test [1] deals with T1, human transferrin receptor (human, UniProt P02786 89-760, limits assumed).
T1 construct: also called hTfR; human TfR
The experiment in a line: ELISA, plate-coated human TfR, anti-human IgG-HRP detection; WT run beside VH Y27H. How it is done:
(§1) Human TfR (2.5 μg/ml) was coated on a 96-well half area plate (Corning) overnight at 4° C. Antibodies were prepared by diluting 5-fold from 50 nM to 0.64 pM. PBS (pH 7.5; same as blocking buffer) containing 5% skim milk was used for dilution. The plate was washed three times with PBS at pH 7.5, and then blocked with blocking buffer at room temperature for 2 hours and washed several more times. Various concentrations of anti-TfR antibodies were placed in the wells, and binding was induced for 2 hours. Unbound antibodies were then washed twice with PBST and twice with PBS.
(§2) Horseradish peroxidase (HRP)-conjugated anti-human IgG antibody (AB frontier) was added and incubated for 2 hours. After the antibody washing step, 50 μl of TMB solution was added and incubated at 37° C. for 20 minutes. Finally, an equal volume of stop solution was added and mixed, and then the absorbance was measured at 450 nm using an EMax Microplate Reader (Molecular Devices). Steps other than TMB incubation were performed at room temperature.
On the technique in general: An ELISA detects its analyte on a solid surface through an enzyme-linked reagent.

Test [2] addresses T1, human transferrin receptor. The test is described as follows: ELISA, plate-coated human TfR, anti-human IgG-HRP detection; WT run beside VH Y98A. Here is the method: as §1, §2
Test [3] concerns the target T1, human transferrin receptor. The experiment in a line: ELISA, plate-coated human TfR, anti-human IgG-HRP detection; WT run beside VH Y99H. How it is done:
as §1, §2

Test [4] concerns the target T1, human transferrin receptor. The experiment in a line: ELISA, plate-coated human TfR, anti-human IgG-HRP detection; WT run beside VL Y94A. Here is the method:
as §1, §2

Test [5] deals with T1, human transferrin receptor. The test is described as follows: ELISA, plate-coated human TfR; mutant against WT. How it is done: as §1, §2
Test [6] concerns the target T1, human transferrin receptor. The test is described as follows: ELISA, plate-coated human TfR, anti-human IgG-HRP detection. Here is the method:
as §1, §2

T1 sequence (P02786 89-760 limits assumed): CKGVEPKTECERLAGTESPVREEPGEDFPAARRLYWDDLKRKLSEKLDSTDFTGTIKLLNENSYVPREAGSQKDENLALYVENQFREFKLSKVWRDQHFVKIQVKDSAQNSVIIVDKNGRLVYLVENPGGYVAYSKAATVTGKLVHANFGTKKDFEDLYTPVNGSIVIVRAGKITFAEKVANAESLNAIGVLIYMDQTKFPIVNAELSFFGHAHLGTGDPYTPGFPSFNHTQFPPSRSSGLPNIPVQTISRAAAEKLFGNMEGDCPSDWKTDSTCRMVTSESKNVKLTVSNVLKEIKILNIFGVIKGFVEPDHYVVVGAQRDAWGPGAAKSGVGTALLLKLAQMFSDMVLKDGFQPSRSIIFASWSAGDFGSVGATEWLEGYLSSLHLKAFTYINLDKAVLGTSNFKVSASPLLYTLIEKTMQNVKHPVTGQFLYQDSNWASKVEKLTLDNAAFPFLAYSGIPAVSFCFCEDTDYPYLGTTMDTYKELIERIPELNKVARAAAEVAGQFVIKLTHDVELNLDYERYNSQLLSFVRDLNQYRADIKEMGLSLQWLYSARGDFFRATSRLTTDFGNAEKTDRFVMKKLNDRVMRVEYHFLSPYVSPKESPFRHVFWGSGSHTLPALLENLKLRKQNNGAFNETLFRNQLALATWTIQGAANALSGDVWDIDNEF

B1: anti-human transferrin receptor antibody 128.1, wild type (WT) (antibody, V domains shown)
VH: EVQLQQSGPELVKPGASMKISCKASGYSFTGYTMNWVKQSHGENLEWIGRINPHNGGTDYNQKFKDKAPLTVDKSSNTAYMELLSLTSEDSAVYYCARGYYYYSLDYWGQGTSVTVSS
VL: QIVLTQSPAIMSASPGEKVTMTCSASSSIDYIHWYQQKSGTSPKRWIYDTSKLASGVPARFSGSGSGTSYSLTISSMEPEDAATYYCHQRNSYPWTFGGGTRLEIR
notes: The ELISA detects with anti-human IgG-HRP; also called anti-hTfR antibody; anti-TfR(WT)
Turning to B1, the half-maximal effective concentration (EC50) in test [1] was 0.057 nM; in test [2], 0.53 nM; in test [3] it was 0.048 nM; in test [4] it was 0.44 nM.

B2: anti-human transferrin receptor antibody 128.1 with VH Y98A mutation (antibody, V domains shown)
VH: EVQLQQSGPELVKPGASMKISCKASGYSFTGYTMNWVKQSHGENLEWIGRINPHNGGTDYNQKFKDKAPLTVDKSSNTAYMELLSLTSEDSAVYYCARGYYAYSLDYWGQGTSVTVSS
VL: QIVLTQSPAIMSASPGEKVTMTCSASSSIDYIHWYQQKSGTSPKRWIYDTSKLASGVPARFSGSGSGTSYSLTISSMEPEDAATYYCHQRNSYPWTFGGGTRLEIR
Regarding B2, the “Fold-increase of EC50 (Reduced rate of binding affinity)” value in test [5] was greater than 100 fold.

B3: anti-human transferrin receptor antibody 128.1 with VH Y99H mutation (antibody, V domains shown)
VH: EVQLQQSGPELVKPGASMKISCKASGYSFTGYTMNWVKQSHGENLEWIGRINPHNGGTDYNQKFKDKAPLTVDKSSNTAYMELLSLTSEDSAVYYCARGYYYHSLDYWGQGTSVTVSS
VL: QIVLTQSPAIMSASPGEKVTMTCSASSSIDYIHWYQQKSGTSPKRWIYDTSKLASGVPARFSGSGSGTSYSLTISSMEPEDAATYYCHQRNSYPWTFGGGTRLEIR
As for B3, the “Fold-increase of EC50 (Reduced rate of binding affinity)” value in test [5] is 9.2 fold. This molecule had an EC50 in test [6] of 0.44 nM.

B4: anti-human transferrin receptor antibody 128.1 with VH Y27H mutation (antibody, V domains shown)
VH: EVQLQQSGPELVKPGASMKISCKASGHSFTGYTMNWVKQSHGENLEWIGRINPHNGGTDYNQKFKDKAPLTVDKSSNTAYMELLSLTSEDSAVYYCARGYYYYSLDYWGQGTSVTVSS
VL: QIVLTQSPAIMSASPGEKVTMTCSASSSIDYIHWYQQKSGTSPKRWIYDTSKLASGVPARFSGSGSGTSYSLTISSMEPEDAATYYCHQRNSYPWTFGGGTRLEIR
notes: Same vector format as WT (human IgG constant region with myc-His tag, human kappa CL); also called anti-TfR(VH Y27H)
Consider B4, for which the “Fold-increase of EC50 (Reduced rate of binding affinity)” value in test [5] worked out at 35 fold. A half-maximal effect in test [6] (EC50) was put at 1.98 nM.

B5: anti-human transferrin receptor antibody 128.1 with VL Y94A mutation (antibody, V domains shown)
VH: EVQLQQSGPELVKPGASMKISCKASGYSFTGYTMNWVKQSHGENLEWIGRINPHNGGTDYNQKFKDKAPLTVDKSSNTAYMELLSLTSEDSAVYYCARGYYYYSLDYWGQGTSVTVSS
VL: QIVLTQSPAIMSASPGEKVTMTCSASSSIDYIHWYQQKSGTSPKRWIYDTSKLASGVPARFSGSGSGTSYSLTISSMEPEDAATYYCHQRNSAPWTFGGGTRLEIR
Consider B5, for which the “Fold-increase of EC50 (Reduced rate of binding affinity)” value in test [5] is 1.2 fold. The EC50 in test [6] turned out to be 0.52 nM.
